Target: T1, AcrIIA13b (shAcrIIA13b) (Staphylococcus haemolyticus, UniProt A0AAX7FLQ9 1-129)
T1 sequence: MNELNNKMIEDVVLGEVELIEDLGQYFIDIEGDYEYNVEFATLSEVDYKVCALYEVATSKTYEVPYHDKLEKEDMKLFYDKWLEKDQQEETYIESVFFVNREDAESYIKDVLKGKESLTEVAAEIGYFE
Assay: EMSA; no Cas9; Cas9 EMSA: 100 mM NaCl, 50 mM Tris/HCl pH 8.0, 100 ug/mL BSA, 37 C (AcrIIA13b step at RT); 99 nM SauCas9, 90 nM sgRNA, 1.4 nM DNA, 4% gel 0.5x TBE
Details: protein: recombinant; tags: C-terminal His6 (pET21a); a tag-free version also exists; chain copies: 2; label: none (SYBR Gold stain); single strand, sgRNA hairpins

B1: SauCas9 sgRNA (structured_RNA)
RNA: GCAGCUGAUCAGGAACAGCGGUUUUAGUACUCUGGAAACAGAAUCUACUAAAACAAGGCAAAAUGCCGUGUUUAUCUCGUCAACUUGUUGGCGAGAUUU
  binding result: no binding

— article PMC13147308, “Investigating the molecular mechanisms underlying the anti‐CRISPR function of AcrIIA13b protein”
